Source: patent publication US20230312755A1 (ANGITIA, published 2023)
Residue numbers refer to the chain shown, from its start. One block for each binder: values may come before it. Ends that are not written are not given here.

Key:
human Sclerostin [1] = target: T1, human Sclerostin (human, UniProt Q9BQB4 24-213); experiment: cell-based or functional assay
T1 sequence: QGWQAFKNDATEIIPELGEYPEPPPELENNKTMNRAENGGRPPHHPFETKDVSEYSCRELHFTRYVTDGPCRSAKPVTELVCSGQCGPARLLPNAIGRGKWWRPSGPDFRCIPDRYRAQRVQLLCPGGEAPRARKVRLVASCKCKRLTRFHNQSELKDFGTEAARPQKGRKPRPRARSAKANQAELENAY

human Sclerostin [2] = target: T1, human Sclerostin; experiment: BLI (Gator), antibody on anti-hFc biosensor, Sclerostin as analyte, 1:1 global fit
Description: (§1) The binding affinity of humanized anti-Sclerostin antibodies to human and cynomolgus monkey Sclerostin were determined with bio-layer interferometry using a Gator instrument (Probe Life). Antibodies were immobilized on an anti-hFc biosensor, using a […]. Serial dilutions of human Sclerostin and cynomolgus monkey Sclerostin from 4 μg/ml by two folds in kinetics buffer (PBS, pH 7.4, 0.05% Tween-20, 0.2% BSA, 10 μM biotin) were used as the analytes. Affinity (KD) and kinetic parameters (Kₒₙ and Koff) were calculated from a global fit (1:1) of the data using the Gator software.

[3] = target: T2, cynomolgus monkey Sclerostin (cynomolgus monkey, UniProt Q9BG78 24-213 (Chlorocebus aethiops entry)); experiment: as above
T2 chain: T1 sequence with E26D, P70Q, E129A, T161P, S178G
Description: as §1

human DKK1 [4] = target: T3, human DKK1 (human, UniProt O94907 32-266); experiment: BLI (Gator), hAb-2 on anti-hFc probe already holding hSclerostin, hDKK1 as second analyte
T3 construct: Analyte in BLI and the protein added in the reporter assay; also called hDKK1; Dickkopf-1
T3 sequence (looked up): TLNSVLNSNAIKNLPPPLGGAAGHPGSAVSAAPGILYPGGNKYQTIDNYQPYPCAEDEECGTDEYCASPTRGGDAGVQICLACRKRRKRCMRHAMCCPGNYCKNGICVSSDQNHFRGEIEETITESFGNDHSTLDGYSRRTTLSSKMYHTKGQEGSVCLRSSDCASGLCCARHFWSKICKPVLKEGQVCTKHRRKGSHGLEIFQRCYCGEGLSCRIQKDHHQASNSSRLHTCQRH
Description: The bsAb constructs (5 μg/ml) were captured to the anti-hFc HFC probe, then sequentially adding hSclerostin (2 μg/ml) and hDKK1 (2 μg/ml) in kinetics buffer (PBS, pH 7.4, 0.05% Tween-20, 0.2% BSA).

[5] = target: T4, His-tagged human Sclerostin (NCBI reference No. NP_079513.1) (human, UniProt Q9BQB4 24-213); experiment: ELISA, plate coated with His-tagged human Sclerostin
T4 construct: also called mouse His-tagged human Sclerostin; not shown: His tag
T4 sequence: T1 sequence
Description: The ability of antibodies to specifically bind Sclerostin was determined by an ELISA capture assay. Plates were coated, in a 96-well half-area, with 100 μl/well of mouse His-tagged human Sclerostin (NCBI reference No. is NP_079513.1) [[…]], in coating buffer (PBS, pH 7.4), and incubated at RT for one hour, or 4° C. overnight. The plates were washed once with 100 μl/well of washing solution (PBS containing 0.2% Tween20, BIO-RAD). Plates were then incubated in blocking solution (PBS containing 1% BSA, 1% goat serum and 0.5% Tween20; 100 μl/well) for one hour at room temperature (RT). Anti-Sclerostin antibodies at various concentrations (1000, 333.3, 111.1, 37.0, 12.3, 4.1, 1.4, 0.5, 0.15, 0.05 ng/ml), a positive control antibody Romosozumab or non-Sclerostin related IgG (human or rat IgG, negative control), were then added to each well in 20 μl/well of blocking solution, and plates were incubated at RT for one hour. NeutrAvidin HRP (Pierce, Catalog #31001) diluted in blocking solution (1:50,000 dilution) was added at to each well ([…]), and the plates were incubated at RT for one hour prior to three washes with […] of washing solution. SuperSignal ELISA Femto (ThermoFisher Scientific, Catalog #37074) working solution was added to the plates ([…]), and the signal was read using a luminometer at 425 nm.

Pep2 = target: T5, Pep2 (biotinylated (NHS-biotin), site not given); experiment: BLI (Gator), biotinylated peptide on streptavidin biosensor, 93B1B7 as analyte
T5 construct: also called Pep2 mSOST
T5 peptide: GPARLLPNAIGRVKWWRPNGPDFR
Description: (§2) The peptides were biotinylated (NHS-Biotin Reagents, Thermo, #21343) and immobilized on Streptavidin biosensor, using a 0.5 μg/ml solution.

Pep3 = target: T6, Pep3 (also: biotinylated (NHS-biotin), site not given here); experiment: as above
T6 construct: also called Pep3 h/mSOST
T6 peptide: GPARLLPNAIGR
Description: as §2

Pep4 = target: T7, Pep4 (also: biotinylated (NHS-biotin), site not given here); experiment: as above
T7 construct: also called Pep4 hSOST
T7 peptide: RLLPNAIGRGK
Description: as §2

Pep7 = target: T8, Pep7 (also: biotinylated (NHS-biotin), site not given here); experiment: as above
T8 construct: also called Pep7 hSOST
T8 peptide: KWWRPSGPDFR
Description: as §2

Pep8 = target: T9, Pep8 (also: biotinylated (NHS-biotin), site not given here); experiment: as above
T9 construct: also called Pep8 mSOST
T9 peptide: PNAIGRVKWWR
Description: as §2

Pep9 = target: T10, Pep9 (also: biotinylated (NHS-biotin), site not given here); experiment: as above
T10 construct: also called Pep9 mSOST
T10 peptide: IGRVKWWRPNGP
Description: as §2

Pep10 = target: T11, Pep10 (also: biotinylated (NHS-biotin), site not given here); experiment: as above
T11 construct: also called Pep 10 mSOST
T11 peptide: KWWRPNGPDFR
Description: as §2

Pep1 = target: T12, Pep1 (human, biotinylated (NHS-Biotin Reagents)); experiment: BLI (Gator), biotinylated peptide on streptavidin biosensor, 93B1B7 5 µg/ml as analyte
T12 construct: Chemically synthesized peptide of the second loop of human Sclerostin, biotinylated and immobilized on a streptavidin biosensor; also called hScl 110-133
T12 peptide: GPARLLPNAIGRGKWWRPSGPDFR
Description: as §2

pep5 = target: T13, pep5 (human, also: biotinylated (NHS-biotin), site not given here); experiment: as above
T13 construct: Chemically synthesized peptide of the second loop of human Sclerostin, biotinylated and immobilized on a streptavidin biosensor
T13 peptide: PNAIGRGKWWR
Description: as §2

pep6 = target: T14, pep6 (human, also: biotinylated (NHS-biotin), site not given here); experiment: as above
T14 construct: Chemically synthesized peptide of the second loop of human Sclerostin, biotinylated and immobilized on a streptavidin biosensor
T14 peptide: IGRGKWWRPSGP
Description: as §2

human Sclerostin [6] = target: T1, human Sclerostin; experiment: cell-based or functional assay; remark: listed apart in the source
human DKK1 [7] = target: T3, human DKK1; experiment: cell-based or functional assay
human Sclerostin [8] = target: T1, human Sclerostin; experiment: BLI (Gator), antibody on anti-hFc biosensor, antigen as analyte, 1:1 global fit
Description: (§3) Binding kinetics and affinities of anti-Sclerostin×anti-DKK1 and anti-Sclerostin×anti-RANKL bispecific antibodies were measured with Gator (Probe Life) bio-layer interferometry (BLI). Antibodies were immobilized on an anti-hFc biosensor, using a 5 μg/ml solution. Serial dilutions of sclerostin (from 1 μg/ml), DKK1 (from 2 μg/ml), or RANKL (from 4 μg/ml) by two folds in kinetics buffer (PBS, pH 7.4, 0.05% Tween-20, 0.2% BSA) were used as the analytes. Affinity (KD) and kinetic parameters (Kₒₙ and Koff) were calculated from a global fit (1:1) of the data using the Gator software.

human DKK1 [9] = target: T3, human DKK1; experiment: as above
Description: as §3

human Sclerostin [10] = target: T1, human Sclerostin; experiment: BLI (Gator), antibody on anti-hFc biosensor, antigen as analyte; koff at LOD, KD estimated
Description: as §3

human DKK1 [11] = target: T3, human DKK1; experiment: as above
Description: as §3

B2: 93B1B7 (antibody, V domains shown)
VH: QAQLQQSGAELVRPGASVTLSCKASGYTFTDYEIHWMKQTPVHGLEWIGAIDPETGGTAYNQKFKGKAILTADRSSSTAYLELRSLTSEDSAVYYCYSYDYVTYWGQGTLVTVSA
VL: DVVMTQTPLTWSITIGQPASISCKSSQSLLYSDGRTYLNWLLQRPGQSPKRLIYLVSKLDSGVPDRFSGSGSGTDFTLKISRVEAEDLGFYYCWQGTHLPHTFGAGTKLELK
notes: Murine monoclonal antibody from a hybridoma; also called mAb 93B1B7; Antibody 93B1B7
EC50, Sclerostin-neutralisation activity in HEK293/TCF/LEF/Wnt1 cells (luciferase reporter) (human Sclerostin [1]): 57.9 nM
EC50 [5]: 0.04 nM
Kd (human Sclerostin [2]): 0.051 nM
koff (human Sclerostin [2]): 8.4e-05 s⁻¹
kon (human Sclerostin [2]): 1e+06 M⁻¹ s⁻¹
Kd [3]: 0.018 nM
koff [3]: 6.5e-05 s⁻¹
kon [3]: 2.2e+06 M⁻¹ s⁻¹
binding result (Pep2): no binding (tested: 5 µg/ml)
binding result (Pep3): no binding (tested: 5 µg/ml)
binding result (Pep4): no binding (tested: 5 µg/ml)
binding result (Pep7): no binding (tested: 5 µg/ml)
binding result (Pep8): no binding (tested: 5 µg/ml)
binding result (Pep9): no binding (tested: 5 µg/ml)
binding result (Pep10): no binding (tested: 5 µg/ml)
binding result (Pep1): binds
binding result (pep5): binds
binding result (pep6): binds

B3: BAP0061 (bispecific antibody, human IgG4 S228P, kappa)
heavy 1: EVQLVQSGAEVKKPGASVKVSCKASGYTFTDYEIHWVRQAPGKGLEWMGAIDPETGGTAYNQKFKGRVTMTTDTSTSTAYMELRSLRSDDTAVYYCYSYDYVTYWGQGTTVTVSSASTKGPSVFPLAPCSRSTSESTAALGCLVKDYFPEPVTVSWNSGALTSGVHTFPAVLQSSGLYSLSSVVTVPSSSLGTKTYTCNVDHKPSNTKVDKRVESKYGPPCPPCPAPEFLGGPSVFLFPPKPKDTLMISRTPEVTCVVVDVSQEDPEVQFNWYVDGVEVHNAKTKPREEQFNSTYRVVSVLTVLHQDWLNGKEYKCKVSNKGLPSSIEKTISKAKGQPREPQVYTLPPSQEEMTKNQVSLSCAVKGFYPSDIAVEWESNGQPENNYKTTPPVLDSDGSFFLVSRLTVDKSRWQEGNVFSCSVMHEALHNRFTQKSLSLSLGK
light 1: DIQMTQSPSSLSASVGDRVTITCRSSQSLLYSDGRTYLNWYQQKPGKSPKRLIYLVSKLDSGVPDRFSGSGSGTDFTLTISSLQPEDFATYYCWQGTHLPHTFGGGTKVEIKRTVAAPSVFIFPPSDEQLKSGTASVVCLLNNFYPREAKVQWKVDNALQSGNSQESVTEQDSKDSTYSLSSTLTLSKADYEKHKVYACEVTHQGLSSPVTKSFNRGEC
heavy 2: not shown
light 2: DIRMTQSPFSLSASVGDRVTITCLASEDIYSDLAWYQQKPAKAPKLFIYNANSLQNGVPSRFSGSGSGTDYTLTISSLQPEDFATYYCQQYNNYPPTFGGGTKVEIKRTVAAPSVFICPPSDEQLKSGTASVVCLLNNFYPREAKVQWKVDNALQSGNSQESVTEQDSKDSTYSLSSTLTLSKADYEKHKVYACEVTHQGLSSPVTKSFNRGES
notes: Asymmetric knob-into-hole full length antibody: first Fab (hAb-2) recognizes Sclerostin, second Fab (11H10) recognizes DKK1
EC50, Sclerostin neutralization activity in HEK293/TCF/LEF/Wnt1 reporter gene assay (human Sclerostin [6]): 63.8 nM
EC50, DKK1 neutralization activity in HEK293/TCF/LEF/Wnt1 reporter gene assay (human DKK1 [7]): 41.4 nM
kon (human Sclerostin [8]): 2.62e+06 M⁻¹ s⁻¹
kon (human DKK1 [9]): 330000 M⁻¹ s⁻¹
Kd (human Sclerostin [10]): ~0.01 nM
Kd (human DKK1 [11]): ~0.01 nM

Now from value to binder:

EC50, Sclerostin-neutralisation activity in HEK293/TCF/LEF/Wnt1 cells (luciferase reporter) (human Sclerostin [1]): 14.9 nM
Kd (human Sclerostin [2]): 0.24 nM
koff (human Sclerostin [2]): 0.0002 s⁻¹
kon (human Sclerostin [2]): 780000 M⁻¹ s⁻¹
Kd [3]: 0.055 nM
koff [3]: 8.06e-05 s⁻¹
kon [3]: 1.54e+06 M⁻¹ s⁻¹
binding result (human DKK1 [4]): no binding (tested: 2 µg/ml)
B1: hAb-2 (antibody, V domains shown)
VH: EVQLVQSGAEVKKPGASVKVSCKASGYTFTDYEIHWVRQAPGKGLEWMGAIDPETGGTAYNQKFKGRVTMTTDTSTSTAYMELRSLRSDDTAVYYCYSYDYVTYWGQGTTVTVSS
VL: DIQMTQSPSSLSASVGDRVTITCRSSQSLLYSDGRTYLNWYQQKPGKSPKRLIYLVSKLDSGVPDRFSGSGSGTDFTLTISSLQPEDFATYYCWQGTHLPHTFGGGTKVEIK
notes: Humanized 93B1B7; also called humanized anti-Sclerostin antibody hAb-2

EC50, Sclerostin neutralization activity in HEK293/TCF/LEF/Wnt1 reporter gene assay (human Sclerostin [6]): 65.4 nM
EC50, DKK1 neutralization activity in HEK293/TCF/LEF/Wnt1 reporter gene assay (human DKK1 [7]): 44.7 nM
kon (human Sclerostin [8]): 2.59e+06 M⁻¹ s⁻¹
kon (human DKK1 [9]): 129000 M⁻¹ s⁻¹
Kd (human Sclerostin [10]): ~0.01 nM
Kd (human DKK1 [11]): ~0.01 nM
B4: BAP0063 (bispecific antibody, human IgG4 S228P, kappa)
heavy 1: B3 heavy 1
light 1: B3 light 1
heavy 2: not shown
light 2: B3 light 2 with C118F, Q160C
notes: as for B3
